Assays:
[1] = molecular target: recombinant streptococcal enolase (Sen) from GAS strain AP53 (Streptococcus pyogenes (GAS) strain AP53); experiment: ELISA; Sen coated on high protein binding 96-well plates overnight at 4°C; hPg added at 25°C for 1 h; detected with HRP-conjugated monoclonal mouse-anti hPg; saturation curve
[2] = molecular target: recombinant mature PAM (Asn1-Gln351, plus (His)6) (Streptococcus pyogenes (GAS) strain AP53) (UniProt P49054)
[3] = molecular target: recombinant streptococcal enolase (Sen) from GAS strain AP53 (Streptococcus pyogenes (GAS) strain AP53)
[4] = molecular target: recombinant streptococcal enolase (Sen) from GAS strain AP53 (Streptococcus pyogenes (GAS) strain AP53); experiment: SPR; Sen amine-coupled to a CM-5 chip (~1,000 RU); hPg as analyte, 9 to 2,400 nM; 25°C, HBS-EP+ (10 mM Na-Hepes/150 mM NaCl/3 mM EDTA/0.05% polysorbate 20, pH 7.4); equilibrium (affinity) fit
[5] = molecular target: plasminogen (Homo sapiens) (UniProt P00747); details: cited from earlier work
[6] = molecular target: recombinant streptococcal enolase (Sen) from GAS strain AP53 (Streptococcus pyogenes (GAS) strain AP53); experiment: AUC; sedimentation velocity, 20°C, 50 mM Na phosphate/0.1 M NaCl, pH 7.4; 30,000 rpm for Sen, 35,000 rpm for hEno; three protein dilutions; no concentration-dependent dissociation down to at least 0.1 mg/ml
[7] = molecular target: recombinant streptococcal enolase (Sen) from GAS strain AP53 (Streptococcus pyogenes (GAS) strain AP53); experiment: SEC-MALS; each protein 100 μl of 1 mg/ml on a WTC-030S5 column, PBS, pH 7.4, flow rate 0.5 ml/min

Sequence of recombinant streptococcal enolase (Sen) from GAS strain AP53 (Streptococcus pyogenes (GAS) strain AP53) (A2RFE3 whole entry): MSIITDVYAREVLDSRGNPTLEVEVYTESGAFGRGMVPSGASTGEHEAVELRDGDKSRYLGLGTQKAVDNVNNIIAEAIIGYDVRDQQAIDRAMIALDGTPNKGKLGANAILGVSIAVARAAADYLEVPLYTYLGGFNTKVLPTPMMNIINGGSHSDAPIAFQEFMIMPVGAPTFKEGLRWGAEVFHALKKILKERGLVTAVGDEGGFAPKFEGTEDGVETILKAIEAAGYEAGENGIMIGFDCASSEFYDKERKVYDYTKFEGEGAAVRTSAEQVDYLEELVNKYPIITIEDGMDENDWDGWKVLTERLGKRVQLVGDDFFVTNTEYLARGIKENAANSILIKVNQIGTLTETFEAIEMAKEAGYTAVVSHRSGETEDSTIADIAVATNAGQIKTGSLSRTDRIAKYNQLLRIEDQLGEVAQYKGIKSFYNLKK
Sequence of UniProt P00747 (P00747 20-810): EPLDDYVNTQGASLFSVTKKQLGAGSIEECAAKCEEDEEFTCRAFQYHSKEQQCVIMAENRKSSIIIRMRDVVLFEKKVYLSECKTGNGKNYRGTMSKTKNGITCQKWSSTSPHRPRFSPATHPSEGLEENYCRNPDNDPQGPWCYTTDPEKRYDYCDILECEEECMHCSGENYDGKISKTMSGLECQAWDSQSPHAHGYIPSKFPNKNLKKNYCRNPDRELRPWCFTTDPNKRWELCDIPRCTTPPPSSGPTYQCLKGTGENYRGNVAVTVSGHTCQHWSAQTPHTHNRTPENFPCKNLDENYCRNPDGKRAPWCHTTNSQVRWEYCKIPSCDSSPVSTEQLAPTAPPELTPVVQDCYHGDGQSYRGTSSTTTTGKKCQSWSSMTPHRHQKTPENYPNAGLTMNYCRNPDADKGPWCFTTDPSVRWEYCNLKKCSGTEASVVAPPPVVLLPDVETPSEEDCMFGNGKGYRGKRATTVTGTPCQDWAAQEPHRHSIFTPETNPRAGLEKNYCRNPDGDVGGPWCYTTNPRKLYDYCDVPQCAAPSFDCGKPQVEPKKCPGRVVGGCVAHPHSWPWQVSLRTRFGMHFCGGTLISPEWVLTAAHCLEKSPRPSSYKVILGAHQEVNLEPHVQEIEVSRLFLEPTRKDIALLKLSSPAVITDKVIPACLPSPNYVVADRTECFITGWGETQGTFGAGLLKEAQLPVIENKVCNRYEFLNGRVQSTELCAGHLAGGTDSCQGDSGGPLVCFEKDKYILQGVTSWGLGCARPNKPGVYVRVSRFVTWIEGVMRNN

recombinant human plasminogen (hPg) (natural protein)
C50 [1]: 125 nM
rate of activation of hPg by tPA on PAM-coated plates against free hPg, hydrolysis of S2251 [2]: 2.5 fold
rate of activation of hPg by tPA with Sen bound to DOPG vesicles against vesicles without Sen, hydrolysis of S2251 [3]: 6 to 8 fold
C50 [4]: 111 nM

plasminogen-binding M-protein (PAM) (from UniProt P49054)
Kd [5]: 1 nM

recombinant streptococcal enolase (Sen) from GAS strain AP53 (enzyme)
stoichiometry N [6]: 8
stoichiometry N [7]: 8
